Assay results taken from PMC13265731, “In vitro reconstitution defines the mechanistic basis of HSET motor activity regulation by IntraFlagellar Transport proteins” (Communications Biology, 2026).

B1: GFP-HSET (full-length N-terminal hexa-histidine-tagged GFP-HSET) (natural protein, human, UniProt Q9BW19 1-673, looked up)
chain: MDPQRSPLLEVKGNIELKRPLIKAPSQLPLSGSRLKRRPDQMEDGLEPEKKRTRGLGATTKITTSHPRVPSLTTVPQTQGQTTAQKVSKKTGPRCSTAIATGLKNQKPVPAVPVQKSGTSGVPPMAGGKKPSKRPAWDLKGQLCDLNAELKRCRERTQTLDQENQQLQDQLRDAQQQVKALGTERTTLEGHLAKVQAQAEQGQQELKNLRACVLELEERLSTQEGLVQELQKKQVELQEERRGLMSQLEEKERRLQTSEAALSSSQAEVASLRQETVAQAALLTEREERLHGLEMERRRLHNQLQELKGNIRVFCRVRPVLPGEPTPPPGLLLFPSGPGGPSDPPTRLSLSRSDERRGTLSGAPAPPTRHDFSFDRVFPPGSGQDEVFEEIAMLVQSALDGYPVCIFAYGQTGSGKTFTMEGGPGGDPQLEGLIPRALRHLFSVAQELSGQGWTYSFVASYVEIYNETVRDLLATGTRKGQGGECEIRRAGPGSEELTVTNARYVPVSCEKEVDALLHLARQNRAVARTAQNERSSRSHSVFQLQISGEHSSRGLQCGAPLSLVDLAGSERLDPGLALGPGERERLRETQAINSSLSTLGLVIMALSNKESHVPYRNSKLTYLLQNSLGGSAKMLMFVNISPLEENVSESLNSLRFASKVNQCVIGTAQANRK
notes: HSET (KIFC1), human mitotic kinesin-14, full length; Dimer by mass photometry (measured 232 ± 34 kDa, expected 210 kDa for the GFP-HSET dimer); also called KIFC1; kinesin-14; source: Sf9 insect cells, baculovirus, purified (Ni-NTA); not shown: GFP, N-terminal, kept
B2: IFT52/70 complex (SNAP-IFT52/SNAP-IFT70) (complex)
chain 1: MEKELRSTILFNAYKKEVFTTNTGYKSLQKRLRSNWKIQSLKDEITSEKLIGVKLWITAGPREKFTAAEFEVLKKYLDSGGDILVMLGEGGESRFDTNINFLLEEYGIMVNNDAVVRNVYYKYFHPKEALVSDGVLNREISRAAGKAVPGVIDEENSGNNAQALTFVYPFGATLSVMKPAVAVLSTGSVCFPLNRPILAFYHSKNQGFGKLAVLGSCHMFSDQYLDKEENSKIMDVVFQWLTTGDIHLNQIDAEDPEISDYTMVPDTATLSEQLRVCLQEGDENPRDFTTLFDLSIYQLDTTCLPKVIKAHEELNVKHEPLQLVQPQFEMPLPALQPAVFPPSFRELPPPPLELFDLDETFSSEKARLAQITNKCTDEDLEFYVRKCGDILGVTSKLPKDQQDAKHILEHIFFQVVEFKKLNQEAH
chain 2: MAGLSGAQIPDGEFTAVVYRLIRNARYAEAVQLLGGELQRSPRSRAGLSLLGYCYYRLQEFALAAECYEQLGQLHPELEQYRLYQAQALYKACLYAEATRVAFLLLDNPAYHSRVLRLQAAIKYSEGDLPGSRSLVEQLPSREGGEESGGENETDGQINLGCLLYKEGQYEAACSKFFAALQASGYQPDLSYNLALAYYSSRQYASALKHIAEIIERGIRQHPELGVGMTTEGIDVRSVGNTLVLHQTALVEAFNLKAAIEYQLRNYEAAQEALTDMPPRAEEELDPVTLHNQALMNMDARPTEGFEKLQFLLQQNPFPPETFGNLLLLYCKYEYFDLAADVLAENAHLIYKFLTPYLYDFLDAVITCQTAPEEAFIKLDGLAGMLTEVLRKLTIQVQEARHNRDDEAIKKAVNEYDETMEKYIPVLMAQAKIYWNLENYPMVEKIFRKSVEFCNDHDVWKLNVAHVLFMQENKYKEAIGFYEPIVKKHYDNILNVSAIVLANLCVSYIMTSQNEEAEELMRKIEKEEEQLSYDDPDKKMYHLCIVNLVIGTLYCAKGNYDFGISRVIKSLEPYNKKLGTDTWYYAKRCFLSLLENMSKHTIMLRDSVIQECVQFLEHCELHGRNIPAVIEQPLEEERMHVGKNTVTYESRQLKALIYEIIGWNI
modifications: SNAP-Surface Alexa Fluor 647 on the SNAP tag | SNAP-Surface Alexa Fluor 647 on the SNAP tag

Columns and labels:
[1] = biological target: the molecule itself; assay: mass photometry; in solution; pre-incubated 30 min at 30 °C (1.2 µM GFP-HSET, 2.4 µM IFT52/70) in 20 mM Na-Hepes pH 7.2, 150 mM NaCl, 2 mM MgCl2, 10% glycerol, 5 mM β-mercaptoethanol; measured at 2.5 nM GFP-HSET and 5 nM IFT52/70, alone or mixed, 25 °C
[2] = biological target: B1; assay: as above; conditions: both partners purified
[3] = biological target: B1; assay: cell-based or functional assay

Binder	stoichiometry N [1]	stoichiometry N [2]	GFP-HSET (5 nM) fluorescence at microtubule minus ends relative to the lattice, with IFT52/70 (10 nM) (1.38 versus 2.34) [3] [fold]
B1	2		
B2		2 IFT52/70 dimers per GFP-HSET dimer	1.7
